From patent publication US9334316B2, “Formulations comprising glucagon” (Oregon Health & Science University, priority 2014, dated 2016)
Read-outs that look alike come from different tables or passages of the source. Each block holds one compound with its values, some of them ahead of it.

Tests used:
[1] = 1st order degradation kinetics of ferulic acid / tetrahydrocurcumin in glucagon formulations; format: physicochemical; settings: for half-life at 1 mM: buffer, read-out: degradation t1/2 (converted)
[2] = 37° C., alkaline (around pH 10) compared to acidic (about pH 3); cited from earlier work
[3] = Reversed phase LCMS of glucagon modifications after aging; format: physicochemical
Procedure: FIG. 3 is a set of four chromatograms from reversed phase LCMS showing the modifications present in glucagon incubated with ferulic acid under the indicated conditions and the recovery by adding varying amounts of L-methionine. The peak indicated as ‘A’ is identified as Met27 oxidation of glucagon; the peak indicated as ‘B’ is a minor breakdown product; the peaks indicated as ‘C’ are identified as glycine adducts.
FIG. 4 is a set of four spectra from reversed phase LCMS showing the modifications present in glucagon incubated under the indicated conditions. The peak indicated as ‘A’ is identified as Met27 oxidation of glucagon; the peak indicated as ‘B’ is a minor breakdown product; the peaks indicated as ‘C’ are identified as glycine adducts.
This oxidation occurs on amino acid residue 27, which is a methionine residue (Met27). In order to minimize oxidation, L-methionine was added to the formulation as an antioxidant at 0.1 and 1 mg/ml. […] This is presumably due to activation of a reactive site on the glucagon backbone that results in an addition reaction with glycine from the bulk solvent. In order to maximize the antioxidant properties while also minimizing the glycine adduct formation, a concentration of 0.1 mg/ml L-methionine was tested. Results are shown in the third panel from the top of FIG. 3. This particular formulation had some minor chain cleavage (peak B) that is variable from batch to batch. As a result, the formulation referred to herein as FAFG includes 0.1 mg/ml L-methionine.
This peak is inhibited at 0.1 mg/ml L-methionine added and nearly absent at 1 mg/ml L-methionine to minimize the oxidation even though glycine adducts are still in high amounts. As a result, the formulation referred to herein as THCFG includes 1 mg/ml L-methionine.
Ferulic acid and tetrahydrocurcumin modify glucagon less than curcumin.

[4] = cited from earlier work
cultured mammalian cells = settings: fibrillated glucagon; cited from earlier work
[5] = Curcumin half-life in glycine buffer at pH 9.0; format: physicochemical
Excerpt: Curcumin reduces Aβ fibril formation in vitro and when administered systemically to transgenic rodents predisposed to Alzheimer's disease (Hamaguchi T et al, Am J Pathol 175, 2557-2565 (2009) incorporated by reference herein). Curcumin has also been reported to inhibit the polymerization of α-synuclein, the compound responsible for Lewy body formation in diseases such as Parkinson's disease (Ono K and Yamada M, Curr Pharm Des 14, 3247-3266 (2008) and Ono K et al Curr Pharm Des 14, 3247-3266 (2008); both of which are incorporated by reference herein). This finding was confirmed in Pandey N et al, Acta Neuropathol 115, 479-489 (2008); which is incorporated by reference herein. However, curcumin stored in a glycine buffer at pH 9.0 degrades quickly with a half-life of about 7 hours.

Compound: COc1cc(CCC(=O)CC(=O)CCc2ccc(O)c(OC)c2)ccc1O [tetrahydrocurcumin]
1st order degradation k ([1]; 1 mM compound in 80 mM glycine pH 9.0): 0.00886 s⁻¹
1st order degradation k ([1]; 1 mM compound in 80 mM glycine pH 9.0 + 1 mg/ml glucagon): 0.000743 s⁻¹
1st order degradation k ([1]; 1 mM compound in 80 mM glycine pH 9.0 + 1 mg/ml glucagon + 1 mg/ml HSA): -0.0025 s⁻¹
half-life at 1 mM ([1]; pH 9, 1 mM compound in 80 mM glycine pH 9.0 + 1 mg/ml glucagon): 933 h
half-life at 1 mM ([1]; pH 9, 1 mM compound in 80 mM glycine pH 9.0): ~78 h

1st order degradation k ([1]; 1 mM, pH 9): -0.000701 s⁻¹
Compound: COc1cc(/C=C/C(=O)O)ccc1O [ferulic acid]

Compound: glucagon
amyloid fibril formation [2]: much less amyloid fibril formation
Met27 oxidation of glucagon (peak A, LCMS) ([3]; aged 7 days at 37° C. with 1 mM ferulic acid): minor oxidation occurs
Met27 oxidation of glucagon (peak A, LCMS) ([3]; aged with 1 mM ferulic acid + 1 mg/ml L-methionine): minimization of oxidation
retention of unmodified glucagon ([3]; curcumin formulation + 1 mg/ml L-methionine): higher retention of unmodified glucagon
oxidation of glucagon ([3]; incubated with curcumin for 7 days at 37° C.): complete oxidation
Met27 oxidation of glucagon (peak A, LCMS) ([3]; incubated with tetrahydrocurcumin): much higher amount of Met27 oxidation
Met27 oxidation of glucagon (peak A, LCMS) ([3]; tetrahydrocurcumin + 0.1 mg/ml L-methionine): inhibited
Met27 oxidation of glucagon (peak A, LCMS) ([3]; tetrahydrocurcumin + 1 mg/ml L-methionine): nearly absent
cytotoxicity ([4]; aged at pH 10 in glycine): no cytotoxicity
cytotoxicity ([4]; aged for 5 days at pH 8.5, concentration 2.5 mg/ml): some cytotoxicity
cytotoxicity (cultured mammalian cells): cytotoxic

half-life ([5]; glucagon buffer with further addition of human serum albumin): 33.5 h
half-life ([5]; in a glucagon buffer): 12.5 h
half-life ([5]; stored in glycine buffer at pH 9.0): ~7 h
Compound: COc1cc(/C=C/C(=O)CC(=O)/C=C/c2ccc(O)c(OC)c2)ccc1O [curcumin]
